Test results as given in PMC10715030.

Legend:
[1] = biological target: AP205 capsid virus-like particle displaying the complementary Catcher (SpyCatcher-VLP) (not stated | Acinetobacter phage AP205); experiment: SDS-PAGE of covalent Tag/Catcher coupling (densitometry); N-SliC or C-SliC mixed with complementary SpyCatcher VLPs at a molar ratio of 1:3, 2 h, room temperature, PBS; covalently coupled band at ~45 kDa; coupling efficiency by densitometry (ImageQuant)
[2] = biological target: c-type human lysozyme (human) (UniProt P61626)
Sequence of UniProt P61626 (P61626 19-148): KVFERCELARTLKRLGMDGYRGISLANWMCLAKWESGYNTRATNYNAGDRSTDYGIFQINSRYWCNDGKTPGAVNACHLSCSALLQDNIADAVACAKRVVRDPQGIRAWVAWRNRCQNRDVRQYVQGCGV

SliC with the N-terminal SpyTag (N-SliC)
cVLP subunits carrying SliC (of 180) (subunits per cVLP) [1]: 140
coupling efficiency [1]: 77%
lytic activity of HL (2.5 µM) on DQ lysozyme substrate (EnzChek Lysozyme Assay Kit), N-SliC 0-5 µM, 30 min at 37°C before substrate [2]: > 1.25 µM
